How the values were obtained:
[1] = target: T1, rat IL-21R expressed on cells (rat); assay: cell ELISA, CHO cells
T1 construct: whole, on cells
Experimental: (§1) A subset of binding proteins was tested for binding to rat, cynomolgus monkey, human IL-21R, or human IL-2R-γ common subunit expressed transiently on the surfaces of CHO-PA-Dukx cells. Cells were transfected 48 hr prior to the assay. On the day of the assay, cells were washed gently 5× in PBS containing 0.9 mM CaCl₂ and 0.45 mM MgCl₂ (PBS/CaMg) on an automated plate washer (Titertek, Huntsville, Ala.), and blocked for 1 hr at RT in PBS/CaMg/5% nonfat dry milk. Conditioned media from transiently expressed anti-IL-21R IgGs were serially diluted in blocking buffer and added to the cells in the blocked plates for 1 hr at RT. Cells were washed 5× with PBS/CaMg and then incubated with horseradish peroxidase-conjugated anti-human IgG for 1 hr at RT. Cells were then washed 10× in PBS/CaMg and all of the wash buffer was removed. Cells were incubated with 100 μl TMB until the color reaction reached saturation, stopped with 100 μl of 0.18 M H₂SO₄, and read at A450 on a Perkin Elmer ENVISION™ plate reader.

[2] = target: T2, cynomolgus monkey IL-21R expressed on cells (cynomolgus monkey, UniProt G7Q0S8 41-559); assay: cell ELISA, CHO cells
T2 construct: whole, on cells
Experimental: as §1

[3] = target: T3, human IL-21R expressed on cells (human, UniProt Q9HBE5 20-538); assay: cell-based or functional assay
T3 sequence (Q9HBE5 20-538 limits assumed): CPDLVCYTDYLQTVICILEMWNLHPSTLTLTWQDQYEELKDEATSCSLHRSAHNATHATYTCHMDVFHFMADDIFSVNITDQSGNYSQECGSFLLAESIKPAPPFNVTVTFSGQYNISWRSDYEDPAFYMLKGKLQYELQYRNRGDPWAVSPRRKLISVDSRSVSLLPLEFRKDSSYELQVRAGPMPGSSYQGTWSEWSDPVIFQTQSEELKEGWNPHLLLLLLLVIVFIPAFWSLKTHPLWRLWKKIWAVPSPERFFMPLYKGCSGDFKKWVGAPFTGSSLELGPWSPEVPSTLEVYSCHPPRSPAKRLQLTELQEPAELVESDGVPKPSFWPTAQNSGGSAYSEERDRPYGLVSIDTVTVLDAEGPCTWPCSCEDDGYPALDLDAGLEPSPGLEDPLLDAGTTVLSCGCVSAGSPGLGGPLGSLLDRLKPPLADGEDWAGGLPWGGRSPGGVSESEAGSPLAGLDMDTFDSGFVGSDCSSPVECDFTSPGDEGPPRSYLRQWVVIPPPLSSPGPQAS

[4] = target: T4, murine IL-21R expressed on cells (murine, UniProt Q9JHX3 20-529); assay: cell-based or functional assay
T4 sequence (Q9JHX3 20-529 limits assumed): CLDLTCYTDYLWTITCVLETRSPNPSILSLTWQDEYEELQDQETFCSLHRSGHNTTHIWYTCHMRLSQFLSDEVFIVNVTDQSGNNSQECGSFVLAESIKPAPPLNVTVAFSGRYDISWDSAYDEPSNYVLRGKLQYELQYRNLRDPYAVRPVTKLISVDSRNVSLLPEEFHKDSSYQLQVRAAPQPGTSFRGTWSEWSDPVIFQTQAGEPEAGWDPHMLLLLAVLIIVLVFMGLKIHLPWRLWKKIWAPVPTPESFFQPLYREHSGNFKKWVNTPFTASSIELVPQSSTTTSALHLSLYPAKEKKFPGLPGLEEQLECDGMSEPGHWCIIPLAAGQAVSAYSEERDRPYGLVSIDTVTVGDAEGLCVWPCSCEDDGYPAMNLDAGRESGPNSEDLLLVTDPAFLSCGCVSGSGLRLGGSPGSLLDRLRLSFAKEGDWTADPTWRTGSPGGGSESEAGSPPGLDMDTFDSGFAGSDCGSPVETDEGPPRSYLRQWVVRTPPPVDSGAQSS

[5] = target: T5, human IL-21R extracellular domain His-Flag fusion protein (human, UniProt Q9HBE5 20-232); assay: SPR, Ab captured on anti-human IgG, replicate experiment
T5 construct: Biotinylated in the HTRF screen; also called hIL-21R-H/F; human IL-21R-H/F
T5 sequence (Q9HBE5 20-232): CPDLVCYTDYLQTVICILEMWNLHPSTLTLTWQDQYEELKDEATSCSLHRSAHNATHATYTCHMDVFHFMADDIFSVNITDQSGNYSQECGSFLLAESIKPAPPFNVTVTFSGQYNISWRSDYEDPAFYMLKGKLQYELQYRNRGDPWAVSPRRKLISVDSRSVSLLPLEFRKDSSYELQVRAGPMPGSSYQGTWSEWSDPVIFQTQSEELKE
Experimental: The kinetics of binding of anti-IL-21R antibodies to human and murine IL-21R-H/F was tested on a BIACORE™ surface plasmon resonance instrument. Anti-human IgG antibodies (Invitrogen Corporation) were immobilized onto a research-grade carboxy-methyl-dextran chip (CM5) using standard amine coupling. The surface was activated with EDC/NHS for 7 min at a flow of 20 μl/min. The first flow cell was used as a reference surface to correct for bulk refractive index, matrix effects, and nonspecific binding. The anti-human-Fc antibody was diluted to 20 μg/ml in 10 mM sodium acetate buffer (pH 5.0), and 2950-3405 resonance units (RU) were captured on each of the four flow cells. Remaining activated groups were blocked with 1.0 M ethanolamine-HCl (pH 8.5).
Anti-IL-21R antibodies were diluted to 0.1-0.2 μg/ml in HBS/EP buffer supplemented with 0.2% bovine serum albumin and loaded onto the BIACORE™ chip. Following a brief washing period, solutions of 0-100 nM human IL-21R-H/F or 10-500 nM murine IL-21R-H/F were injected over the chip at a flow rate of 50 μl/min. The association phase was run for 3 min for human and murine IL-21R kinetics, and the dissociation phase was monitored for 15 min for hIL-21R and for 5 min for mIL-21R, followed by two 10 μl injections and one 30 μl injection of glycine (pH 1.5), to regenerate a fully active capturing surface. All binding experiments were done at 25° C. in HBS/EP buffer, and the sample rack was kept at 15° C. Blank and buffer effects were subtracted for each sensorgram using double referencing.

human IL-2Rβ = target: T6, human IL-2Rβ (human, UniProt P14784 27-239); assay: BIACORE: antibody captured on anti-human IgG; 50 nM analyte injected
T6 sequence (looked up): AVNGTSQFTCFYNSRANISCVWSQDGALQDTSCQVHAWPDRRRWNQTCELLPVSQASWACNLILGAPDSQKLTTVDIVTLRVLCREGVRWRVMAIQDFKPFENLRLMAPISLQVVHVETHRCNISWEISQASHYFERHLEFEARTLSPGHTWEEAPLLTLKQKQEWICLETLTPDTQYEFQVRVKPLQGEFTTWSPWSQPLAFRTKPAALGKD
Experimental: (§2) The specificity of binding of a subset of transiently expressed anti-IL-21R binding proteins (here antibodies) was tested on a BIACORE™ 2000 surface plasmon resonance instrument. Anti-human-IgG, anti-murine immunoglobulin antibodies, and murine IL-21R-H/F were immobilized onto a research-grade carboxymethyl-dextran chip (CM5) using standard amine coupling. The sensor chip surface was activated with EDC/NHS for 7 min at a flow rate of 20 μl/min. The first flow cell was used as reference surface to correct for bulk refractive index, matrix effects, and nonspecific binding. […] Remaining activated groups were blocked with 1.0 M ethanolamine (pH 8.0). The molecular weights of the anti-human IgG and the anti-murine IgG were both 150 kD, and the molecular weight of the IL-21R monomer was 27 kD.
(§3) Conditioned media containing anti-IL-21R antibodies and antibody controls (murine anti-human IL-2Rβ and murine anti-human IL-4R(R&D Systems, Minneapolis, Minn.); human anti-human IL-13 (Wyeth, Cambridge, Mass.)) were diluted in HBS/EP buffer supplemented with 0.2% bovine serum and injected onto all four flow cells of the BIACORE™ chip, capturing 500-700 (RU) of antibody on the species-appropriate capture antibody. Following a 5 sec washing period, 50 nM solutions of a positive control protein (murine IL-21R-H/F), two human proteins related to IL-21R (human IL-2Rβ and human sIL-4R(R&D Systems)), or an unrelated His/FLAG-tagged protein (human IL-13-H/F) were injected over the captured antibodies on the chip. The association and dissociation phases were monitored for 120 and 180 sec, respectively, followed by two 5 μl injections of glycine (pH 1.5) to regenerate a fully active capturing surface. All binding experiments were done at 25° C. in HBS/EP buffer. Blank and buffer effects were subtracted for each sensorgram using double referencing.

human soluble IL-4R = target: T7, human soluble IL-4R (human, UniProt P24394 26-232, limits assumed); assay: as above
T7 construct: also called human sIL-4R
Experimental: as §2, §3

human IL-13-His/FLAG = target: T8, human IL-13-His/FLAG (human, UniProt P35225 35-146, limits assumed); assay: as above
T8 construct: Unrelated His/FLAG-tagged control; also called human IL-13-H/F
T8 sequence (P35225 35-146 limits assumed): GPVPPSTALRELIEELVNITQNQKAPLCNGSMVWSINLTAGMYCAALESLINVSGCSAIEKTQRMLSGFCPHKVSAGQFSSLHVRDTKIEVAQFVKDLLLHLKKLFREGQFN
Experimental: as §2, §3

[6] = target: T3, human IL-21R expressed on cells; assay: cell-based or functional assay; remark: listed apart in the source
[7] = target: T4, murine IL-21R expressed on cells; assay: cell-based or functional assay; remark: listed apart in the source

Row | Binder | A450 (13 nM Ab) [1] [A450] | A450 (13 nM Ab) [2] [A450] | Human IL-21R-BaF3 Proliferation IC50 [3] [nM] | Human IL-21R-TF1 Proliferation IC50 [3] [nM] | Murine IL-21R-BaF3 Proliferation IC50 [4] [nM] | Kd [5] [nM] | koff [5] [s⁻¹] | kon [5] [M⁻¹ s⁻¹] | binding result (human IL-2Rβ) | binding result (human soluble IL-4R) | binding result (human IL-13-His/FLAG) | Neutralization of B cell proliferation IC50 [6] [nM] | Neutralization of murine primary T cell Proliferation IC50 [7] [nM]
1 | AbP (antibody, human IgG1, V domains shown, CDR3 graft, residue limits derived as for m29; also called VHP/VL20; VHPTM/VL20) VH: QVQLQESGPGLVKPSETLSLTCAVSGYSISSGYYWGWIRQPPGKGLEWIGSISHTGNTYYNPPLKSRVTISVDTSKNQFSLKLSSVTAADTAVYYCARGGGISRPEYWGQGTLVTVSS VL: SSELTQDPAVSVALGQTVRITCQGDSLRTYYASWYQQKPGQAPVLVIYGKHKRPSGIPDRFSGSSSGNTASLTITGAQAEDEADYYCVSRSAKGNPHVLFGGGTQLTVL | 1.03 | 1.31 | 0.75 | 3.48 | 0.03 | 0.436 | 0.000102 | 233000 | no binding (tested: 50 nM) | no binding (tested: 50 nM) | no binding (tested: 50 nM) |  | 
2 | AbQ (antibody, human IgG1, V domains shown, CDR3 graft, residue limits derived as for m29; also called VH3/VL2; VH3DM/VL2) VH: QVQLQESGPGLVKPSETLSLTCAVSGYSISSGYYWGWIRQPPGKGLEWIGSISHTGNTYYNPPLKSRVTISVDTSKNQFSLKLSSVTAADTAVYYCARFMGFGRPEYWGQGTLVTVSS VL: SSELTQDPAVSVALGQTVRITCQGDSLRTYYASWYQQKPGQAPVLVIYGKHKRPSGIPDRFSGSSSGNTASLTITGAQAEDEADYYCVARSVVGNPHVLFGGGTQLTVL | 1.16 | 1.31 | 0.68 | 4.62 | 0.153 | 0.213 | 9.34e-05 |  | no binding (tested: 50 nM) | no binding (tested: 50 nM) | no binding (tested: 50 nM) | 0.16 | 0.85
3 | AbR (antibody, human IgG1, V domains shown, CDR3 graft, residue limits derived as for m29; also called VH3/VL18; VH3DM/VL18) VH: QVQLQESGPGLVKPSETLSLTCAVSGYSISSGYYWGWIRQPPGKGLEWIGSISHTGNTYYNPPLKSRVTISVDTSKNQFSLKLSSVTAADTAVYYCARFMGFGRPEYWGQGTLVTVSS VL: SSELTQDPAVSVALGQTVRITCQGDSLRTYYASWYQQKPGQAPVLVIYGKHKRPSGIPDRFSGSSSGNTASLTITGAQAEDEADYYCVTRSVKGNPHVLFGGGTQLTVL | 1.11 | 1.35 | 0.87 | 3.94 | 0.302 | 0.394 | 9.76e-05 | 248000 | no binding (tested: 50 nM) | no binding (tested: 50 nM) | no binding (tested: 50 nM) | 0.22 | 0.13
4 | AbS (antibody, V domains shown, CDR3 graft, residue limits derived as for m29; also called VHP/VL6; VHPTM/VL6) VH: QVQLQESGPGLVKPSETLSLTCAVSGYSISSGYYWGWIRQPPGKGLEWIGSISHTGNTYYNPPLKSRVTISVDTSKNQFSLKLSSVTAADTAVYYCARGGGISRPEYWGQGTLVTVSS VL: SSELTQDPAVSVALGQTVRITCQGDSLRTYYASWYQQKPGQAPVLVIYGKHKRPSGIPDRFSGSSSGNTASLTITGAQAEDEADYYCMSRSIWGNPHVLFGGGTQLTVL | 1.17 | 1.22 | 1.53 | 5 | 0.04 | 1.51 | 0.000305 | 202000 | no binding (tested: 50 nM) | no binding (tested: 50 nM) | no binding (tested: 50 nM) | 0.44 | 0.02
5 | AbO (antibody, human IgG1, V domains shown, CDR3 graft, residue limits derived as for m29; also called VHP/VL16; VHPTM/VL16) VH: QVQLQESGPGLVKPSETLSLTCAVSGYSISSGYYWGWIRQPPGKGLEWIGSISHTGNTYYNPPLKSRVTISVDTSKNQFSLKLSSVTAADTAVYYCARGGGISRPEYWGQGTLVTVSS VL: SSELTQDPAVSVALGQTVRITCQGDSLRTYYASWYQQKPGQAPVLVIYGKHKRPSGIPDRFSGSSSGNTASLTITGAQAEDEADYYCVTRSAKGNPHVLFGGGTQLTVL | 1.1 | 1.36 | 0.52 | 2.91 | 0.065 |  |  |  | no binding (tested: 50 nM) | no binding (tested: 50 nM) | no binding (tested: 50 nM) |  | 4.92
6 | parental 18A5 antibody (antibody, V domains shown, also called 18A5 IgG) VH: QVQLQESGPGLVKTSETLSLTCAVSGYSISSGYYWGWIRQPPGKGLEWIGSISHTGNTYYNPPLKSRVTISVDTSKNQFSLKLSSVTAADTAVYYCARGGGISRPEYWGKGTLVTVSS VL: SSELTQDPPVSVALGQTVTLTCQGDSLRTYYASWYQQKSGQAPILLLYGKHKRPSGIPDRFSGSTSGDTASLTITGAQAEDEADYYCNSRDSSGNPHVLFGGGTQLTVL |  |  |  |  |  | 4.4 | 0.00134 | 304000 |  |  |  | 1.86 | > 85
